Conditions in all cases: remark: other sources report otherwise
In one assay the target is HLA-A*0301 (human). Briefly: cellular competition assay vs FL-labelled reference peptide on B cells; affinity category (high/good IC50<5 uM, intermediate 5-15 uM, low >15-50 uM).
The target of a further assay is HLA-A*0201 (human). Briefly: HLA-A*0201 peptide stabilization assay; unstable if >50% of complexes lost within 2 h.
Another assay concerns the target HLA-A*1101 (human). The assay is described as follows: cellular competition assay vs FL-labelled reference peptide on B cells; affinity category (high/good IC50<5 uM, intermediate 5-15 uM, low >15-50 uM).
The next assay has as its target HLA-A*0101 (human). The assay is described as above.

In general, IC50 refers to the concentration at which inhibition is half-maximal. Read a low IC50 as greater potency.

The molecule VVRRCPHHER [p53 172-181 …] came in with an IC50 with HLA-A*0301 (human) of 5 to 15 µM. As to FLHSGTAKSV [p53 113-122 …], the Stability with HLA-A*0201 (human) was 6 h. In the case of KGQSTSRHK [p53 373-381 …], the 50% inhibitory concentration (IC50) with HLA-A*0301 (human) was in the range of 5 to 15 µM. GTRVRAMAIY [p53 154-163 …] came in with an IC50 with HLA-A*0301 (human) of 5 to 15 µM. In the case of RTEEENLRK [p53 283-291 …], the IC50 in the assay with HLA-A*1101 (human) was in the range of 5 to 15 µM. The molecule VTCTYSPALNK [p53 122-132 …] had an IC50 with HLA-A*0301 (human) of 5 to 15 µM. Same read-out and setting: as for FLHSGTAK [p53 113-120 FLHSGTAK], the figure is 5 to 15 µM. For RVEGNLRVEY [p53 196-205 …], the IC50 with HLA-A*0101 (human) lay within 5 to 15 µM. As to GFLHSGTAK [p53 112-120 …], the IC50 in the assay with HLA-A*0301 (human) and in the assay with HLA-A*1101 (human) was 5 to 15 µM each time.

With GLAPPQHLIRV [p53 187-197 …], in the assay with HLA-A*0201 (human), the Stability is 6 h.

In turn, RMPEAAPPV [p53 65-73 …] gave a Stability with HLA-A*0201 (human) of 6 h. Turning to RAHSSHLK [p53 363-370 RAHSSHLK], the IC50 in the assay with HLA-A*1101 (human) lay within 5 to 15 µM. For RAHSSHLKSK [p53 363-372 …], in the assay with HLA-A*0301 (human), the half-maximal inhibitory concentration (IC50) is 5 to 15 µM.

(Values after US20150010586A1.)
